Data on 15 molecules can be found in patent US20220010021A1 (Sanofi, published 2022).

The target in one assay is T1, human beta-Klotho (KLB) (human, UniProt Q86Z14 53-997).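 Note: Anti-KLB antibodies captured on anti-human Fc CM5 chip, KLB injected as analyte, 180 s association and 1800 s dissociation, fitted to 1:1 binding model.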
T1 construct: bought protein; also called human KLB
T1 sequence (looked up): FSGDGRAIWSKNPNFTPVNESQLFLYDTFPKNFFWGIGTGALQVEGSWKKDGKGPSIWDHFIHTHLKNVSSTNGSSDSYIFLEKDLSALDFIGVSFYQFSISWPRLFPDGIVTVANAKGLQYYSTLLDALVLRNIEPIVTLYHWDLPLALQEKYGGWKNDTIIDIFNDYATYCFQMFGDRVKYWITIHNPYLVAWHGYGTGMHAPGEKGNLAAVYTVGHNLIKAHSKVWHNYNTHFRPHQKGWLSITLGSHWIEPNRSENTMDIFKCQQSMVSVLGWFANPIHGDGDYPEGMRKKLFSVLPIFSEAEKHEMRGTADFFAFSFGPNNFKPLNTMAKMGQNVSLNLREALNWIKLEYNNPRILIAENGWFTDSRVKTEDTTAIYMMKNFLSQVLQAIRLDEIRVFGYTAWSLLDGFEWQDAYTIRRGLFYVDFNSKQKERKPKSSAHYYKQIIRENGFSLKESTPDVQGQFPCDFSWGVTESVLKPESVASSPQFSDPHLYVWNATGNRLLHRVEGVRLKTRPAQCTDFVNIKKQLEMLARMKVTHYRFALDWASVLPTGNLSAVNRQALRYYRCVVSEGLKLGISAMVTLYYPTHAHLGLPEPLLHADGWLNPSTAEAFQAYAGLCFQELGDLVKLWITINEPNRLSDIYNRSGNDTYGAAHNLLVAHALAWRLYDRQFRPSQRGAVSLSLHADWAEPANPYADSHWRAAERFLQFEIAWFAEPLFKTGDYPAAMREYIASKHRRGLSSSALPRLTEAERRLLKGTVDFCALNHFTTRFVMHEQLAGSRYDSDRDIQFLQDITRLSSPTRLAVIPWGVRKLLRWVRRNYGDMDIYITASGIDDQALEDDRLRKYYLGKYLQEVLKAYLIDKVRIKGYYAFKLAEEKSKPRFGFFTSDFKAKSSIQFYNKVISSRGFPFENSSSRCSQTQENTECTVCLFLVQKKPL
Briefly: SPR. A general note: Surface plasmon resonance follows binding to a sensor surface in real time, without labels.

Assay [1] addresses human FGFR1c + KLB receptor complex on HEK293 iLite FGF21 reporter cells (human, UniProt P11362 22-822; Q86Z14 1-1044). The assay is described as follows: cell-based or functional assay.

Chain of human FGFR1c + KLB receptor complex on HEK293 iLite FGF21 reporter cells (P11362 22-822, chain 1 of 2): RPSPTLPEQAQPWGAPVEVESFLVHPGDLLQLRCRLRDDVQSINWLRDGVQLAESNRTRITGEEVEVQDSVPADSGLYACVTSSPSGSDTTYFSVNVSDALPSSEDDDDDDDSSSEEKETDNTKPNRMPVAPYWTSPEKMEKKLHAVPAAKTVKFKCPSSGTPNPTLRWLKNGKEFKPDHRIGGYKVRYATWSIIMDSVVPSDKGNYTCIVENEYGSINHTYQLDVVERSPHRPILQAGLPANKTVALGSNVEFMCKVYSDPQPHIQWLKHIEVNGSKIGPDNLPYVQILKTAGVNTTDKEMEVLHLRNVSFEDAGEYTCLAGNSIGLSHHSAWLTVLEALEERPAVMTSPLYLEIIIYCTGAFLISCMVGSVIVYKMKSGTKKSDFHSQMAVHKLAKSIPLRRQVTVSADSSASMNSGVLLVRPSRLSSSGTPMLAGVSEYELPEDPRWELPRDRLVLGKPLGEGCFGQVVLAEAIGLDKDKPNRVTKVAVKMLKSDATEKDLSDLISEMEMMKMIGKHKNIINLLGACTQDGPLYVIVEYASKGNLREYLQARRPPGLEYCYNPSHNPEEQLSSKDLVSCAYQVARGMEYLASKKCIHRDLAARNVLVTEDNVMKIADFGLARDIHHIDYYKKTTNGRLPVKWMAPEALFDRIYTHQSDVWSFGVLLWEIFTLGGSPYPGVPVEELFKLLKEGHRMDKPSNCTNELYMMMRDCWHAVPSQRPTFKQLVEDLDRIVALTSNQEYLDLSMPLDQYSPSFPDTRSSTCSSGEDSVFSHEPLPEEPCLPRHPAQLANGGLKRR
Chain of human FGFR1c + KLB receptor complex on HEK293 iLite FGF21 reporter cells (Q86Z14 whole entry, chain 2 of 2): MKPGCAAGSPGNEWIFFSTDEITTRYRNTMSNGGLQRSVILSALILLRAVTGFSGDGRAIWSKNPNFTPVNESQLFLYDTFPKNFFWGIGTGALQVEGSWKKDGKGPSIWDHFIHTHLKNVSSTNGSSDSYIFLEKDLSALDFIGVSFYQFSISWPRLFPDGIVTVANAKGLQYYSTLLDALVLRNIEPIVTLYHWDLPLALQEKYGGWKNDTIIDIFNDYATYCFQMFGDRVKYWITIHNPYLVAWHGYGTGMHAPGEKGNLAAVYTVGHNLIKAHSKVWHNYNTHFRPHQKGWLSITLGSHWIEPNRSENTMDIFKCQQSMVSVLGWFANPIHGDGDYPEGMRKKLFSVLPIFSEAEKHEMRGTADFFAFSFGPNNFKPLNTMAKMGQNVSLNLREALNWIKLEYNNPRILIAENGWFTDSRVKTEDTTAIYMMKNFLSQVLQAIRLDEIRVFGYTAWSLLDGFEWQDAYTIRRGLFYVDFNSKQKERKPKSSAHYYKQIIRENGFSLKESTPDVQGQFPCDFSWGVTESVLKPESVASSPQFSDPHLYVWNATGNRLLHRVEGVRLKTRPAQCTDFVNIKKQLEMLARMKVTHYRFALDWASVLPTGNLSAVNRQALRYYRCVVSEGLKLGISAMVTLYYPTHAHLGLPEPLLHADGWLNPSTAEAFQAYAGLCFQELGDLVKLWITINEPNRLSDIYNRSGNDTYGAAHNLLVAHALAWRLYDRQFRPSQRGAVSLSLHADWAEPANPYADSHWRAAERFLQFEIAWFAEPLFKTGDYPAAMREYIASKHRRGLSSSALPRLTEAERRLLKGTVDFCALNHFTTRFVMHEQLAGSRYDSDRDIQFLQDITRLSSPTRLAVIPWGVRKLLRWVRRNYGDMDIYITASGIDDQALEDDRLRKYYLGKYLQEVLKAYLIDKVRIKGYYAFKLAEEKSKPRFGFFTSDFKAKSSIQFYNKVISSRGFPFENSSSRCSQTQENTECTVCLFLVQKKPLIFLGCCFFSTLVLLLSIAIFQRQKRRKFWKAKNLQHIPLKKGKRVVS

B1: Ab0227 (antibody, IgG4, V domains shown)
VH: not shown
VL: SYVLTQPPSVSVAPGQTARITCGGNNIGSESVHWYQQKPGQAPVLVVYDYSDRPSGIPERFSGSNSGNTATLTISRVEAGDEADYYCQVWDGNSDHVVFGGGTKLTVLG
notes: IgG4 PE
Consider B1, for which the dissociation rate constant (koff) with human beta-Klotho (KLB) came out at 0.000214 s⁻¹. In assay [1], the EC50 was 0.06 nmol/L and the Emax was 2340%.

B2: Ab0236 (antibody, IgG4, V domains shown)
VH: not shown
VL: SYVLTQPPSVSVAPGQTARITCGGNNIGSESVHWYQQKPGQAPVLVVYDDSDRPSGIPERFSGSNSGNTATLTISRVEAGDEADYYCQVWDGASDHVVFGGGTKLTVLG
notes: IgG4 PE
The molecule B2 came in with a koff with human beta-Klotho (KLB) of 0.000151 s⁻¹. In addition, in assay [1], the EC50 is 0.05 nmol/L and the Emax stood at 2190%.

B3: Ab0229 (antibody, IgG4, V domains shown)
VH: not shown
VL: SYVLTQPPSVSVAPGQTARITCGGNNIGSESVHWYQQKPGQAPVLVVYDHSDRPSGIPERFSGSNSGNTATLTISRVEAGDEADYYCQVWDGNSDHVVFGGGTKLTVLG
notes: IgG4 PE
B3: the koff with human beta-Klotho (KLB) came out at 0.000394 s⁻¹. For the same molecule, in assay [1], the concentration for a half-maximal effect (EC50) was found to be 0.04 nmol/L and the Emax stood at 1440%.

B4: Ab0297 (antibody, IgG4, V domains shown)
VH: QVTLKESGPVLVKPTETLTLTCTVSGFSLNNARVGVSWIRQPPGKALEWLAHIFSNDEKSYSTSLKSRLTISKDTSKSQVVLTMTNMDPVDTATYYCARSVVTGGYYYEGMDVWGQGTTVTVSS
VL: SYVLTQPPSVSVAPGQTARITCGGNNIGSESVHWYQQKPGQAPVLVVYYESDRPSGIPERFSGSNSGNTATLTISRVEAGDEADYYCQVWDGNSDHVVFGGGTKLTVLG
notes: IgG4 PE
For the molecule B4, in the assay with human beta-Klotho (KLB), the koff worked out at 0.00156 s⁻¹. In assay [1], the 50% effective concentration (EC50) amounted to 0.07 nmol/L and the Emax is 1210%.

B5: Ab0308 (antibody, IgG4, V domains shown)
VH: QVTLKESGPVLVKPTETLTLTCTVSGFSLNNARVGVSWIRQPPGKALEWLAHIFSNDEKSYSTSLKSRLTISKDTSKSQVVLTMTNMDPVDTATYYCARSVVTGGYYYEGMDVWGQGTTVTVSS
VL: SYVLTQPPSVSVAPGQTARITCGGSNIGSESVHWYQQKPGQAPVLVVYYDSDRPSGIPERFSGSNSGNTATLTISRVEAGDEADYYCQVWDGESDHVVFGGGTKLTVLG
notes: IgG4 PE
In turn, B5 gave a koff with human beta-Klotho (KLB) of 0.0013 s⁻¹. Further, in assay [1], the concentration giving a half-maximal response (EC50) is 0.06 nmol/L and the maximal response (Emax) was 1070%.

B6: Ab0230 (antibody, IgG4, V domains shown)
VH: not shown
VL: SYVLTQPPSVSVAPGQTARITCGGNNIGSESVHWYQQKPGQAPVLVVYDSSDRPSGIPERFSGSNSGNTATLTISRVEAGDEADYYCQVWDGNSDHVVFGGGTKLTVLG
notes: IgG4 PE
B6 gave a koff with human beta-Klotho (KLB) of 0.000111 s⁻¹. In assay [1], the EC50 was determined as 0.06 nmol/L and the Emax worked out at 1610%.

B7: Ab0307 (antibody, IgG4, V domains shown)
VH: QVTLKESGPVLVKPTETLTLTCTVSGFSLNNARVGVSWIRQPPGKALEWLAHIFSNDEKSYSTSLKSRLTISKDTSKSQVVLTMTNMDPVDTATYYCARSVVTGGYYYEGMDVWGQGTTVTVSS
VL: SYVLTQPPSVSVAPGQTARITCGGNNIGSESVHWYQQKPGQAPVLVVYYDSDRPSGIPERFSGSNSGNTATLTISRVEAGDEADYYCQVWDGESDHVVFGGGTKLTVLG
notes: IgG4 PE
For the molecule B7, the koff with human beta-Klotho (KLB) came to 0.00118 s⁻¹. Besides, in assay [1], the EC50 came to 0.06 nmol/L and the maximal response (Emax) turned out to be 1150%.

B8: Ab0309 (antibody, IgG4, V domains shown)
VH: QVTLKESGPVLVKPTETLTLTCTVSGFSLNNARVGVSWIRQPPGKALEWLAHIFSNDEKSYSTSLKSRLTISKDTSKSQVVLTMTNMDPVDTATYYCARSVVTGGYYYEGMDVWGQGTTVTVSS
VL: SYVLTQPPSVSVAPGQTARITCGGNNIGSESVHWYQQKPGQAPVLVVYDESDRPSGIPERFSGSNSGNTATLTISRVEAGDEADYYCQVWDGESDHVVFGGGTKLTVLG
notes: IgG4 PE
In the assay with human beta-Klotho (KLB), B8 came in with a koff of 0.00103 s⁻¹. Moreover, in assay [1], the EC50 worked out at 0.04 nmol/L and the maximal effect (Emax) was determined as 1210%.

B9: Ab0228 (antibody, IgG4, V domains shown)
VH: not shown
VL: SYVLTQPPSVSVAPGQTARITCGGNNIGSESVHWYQQKPGQAPVLVVYDASDRPSGIPERFSGSNSGNTATLTISRVEAGDEADYYCQVWDGNSDHVVFGGGTKLTVLG
notes: IgG4 PE
For the molecule B9, in the assay with human beta-Klotho (KLB), the off-rate (koff) amounted to 0.000258 s⁻¹. Moreover, in assay [1], the EC50 came to 0.04 nmol/L and the Emax stood at 1380%.

B10: Ab0306 (antibody, IgG4, V domains shown)
VH: QVTLKESGPVLVKPTETLTLTCTVSGFSLNNARVGVSWIRQPPGKALEWLAHIFSNDEKSYSTSLKSRLTISKDTSKSQVVLTMTNMDPVDTATYYCARSVVTGGYYYEGMDVWGQGTTVTVSS
VL: SYVLTQPPSVSVAPGQTARITCGGSNIGSESVHWYQQKPGQAPVLVVYDDSDRPSGIPERFSGSNSGNTATLTISRVEAGDEADYYCQVWDGESDHVVFGGGTKLTVLG
notes: IgG4 PE
Take B10: the koff with human beta-Klotho (KLB) came to 0.000288 s⁻¹. Further, in assay [1], the concentration for a half-maximal effect (EC50) was 0.05 nmol/L and the Emax was 1330%.

B11: Ab0235 (antibody, IgG4, V domains shown)
VH: not shown
VL: SYVLTQPPSVSVAPGQTARITCGGNNIGSESVHWYQQKPGQAPVLVVYDDSDRPSGIPERFSGSNSGNTATLTISRVEAGDEADYYCQVWDGDSDHVVFGGGTKLTVLG
notes: IgG4 PE
The molecule B11 displayed a koff with human beta-Klotho (KLB) of 0.000153 s⁻¹. For the same molecule, in assay [1], the concentration for a half-maximal effect (EC50) turned out to be 0.06 nmol/L and the maximal response (Emax) was 2090%.

B12: Ab0295 (antibody, IgG4, V domains shown)
VH: QVTLKESGPVLVKPTETLTLTCTVSGFSLNNARVGVSWIRQPPGKALEWLAHIFSNDEKSYSTSLKSRLTISKDTSKSQVVLTMTNMDPVDTATYYCARSVVTGGYYYEGMDVWGQGTTVTVSS
VL: SYVLTQPPSVSVAPGQTARITCGGSNIGSESVHWYQQKPGQAPVLVVYYDSDRPSGIPERFSGSNSGNTATLTISRVEAGDEADYYCQVWDGNSDHVVFGGGTKLTVLG
notes: IgG4 PE
In turn, B12 came in with a koff with human beta-Klotho (KLB) of 0.00157 s⁻¹. In assay [1], the EC50 is 0.07 nmol/L and the Emax came out at 1310%.

B13: Ab0298 (antibody, IgG4, V domains shown)
VH: QVTLKESGPVLVKPTETLTLTCTVSGFSLNNARVGVSWIRQPPGKALEWLAHIFSNDEKSYSTSLKSRLTISKDTSKSQVVLTMTNMDPVDTATYYCARSVVTGGYYYEGMDVWGQGTTVTVSS
VL: SYVLTQPPSVSVAPGQTARITCGGSNIGSESVHWYQQKPGQAPVLVVYYESDRPSGIPERFSGSNSGNTATLTISRVEAGDEADYYCQVWDGNSDHVVFGGGTKLTVLG
notes: IgG4 PE
Turning to B13, the koff with human beta-Klotho (KLB) turned out to be 0.0016 s⁻¹. In addition, in assay [1], the EC50 turned out to be 0.08 nmol/L and the Emax stood at 1180%.

B14: Ab0296 (antibody, IgG4, V domains shown)
VH: QVTLKESGPVLVKPTETLTLTCTVSGFSLNNARVGVSWIRQPPGKALEWLAHIFSNDEKSYSTSLKSRLTISKDTSKSQVVLTMTNMDPVDTATYYCARSVVTGGYYYEGMDVWGQGTTVTVSS
VL: SYVLTQPPSVSVAPGQTARITCGGSNIGSESVHWYQQKPGQAPVLVVYDESDRPSGIPERFSGSNSGNTATLTISRVEAGDEADYYCQVWDGNSDHVVFGGGTKLTVLG
notes: IgG4 PE
As to B14, the koff in the assay with human beta-Klotho (KLB) is 0.00137 s⁻¹. Besides, in assay [1], the EC50 was determined as 0.06 nmol/L and the Emax turned out to be 1290%.

B15: Ab0234 (antibody, IgG4, V domains shown)
VH: not shown
VL: SYVLTQPPSVSVAPGQTARITCGGNNIGSESVHWYQQKPGQAPVLVVYDDSDRPSGIPERFSGSNSGNTATLTISRVEAGDEADYYCQVWDGSSDHVVFGGGTKLTVLG
notes: IgG4 PE
As to B15, the koff with human beta-Klotho (KLB) is 0.00011 s⁻¹. Moreover, in assay [1], the EC50 came to 0.04 nmol/L and the Emax was determined as 1840%.

The term koff denotes the first-order rate constant of dissociation. Read a low koff as slow dissociation. In general, EC50 refers to the concentration that produces a half-maximal response. For orientation: Emax means the greatest response seen or fitted, relative to the assay's reference.
